Results: FireProtDB (doi:10.1074/jbc.274.2.717)
Where “and” joins values, the source holds several entries; their conditions need not be identical. Identical values can stand only once.

Settings: Homo sapiens, pH 8.7, Thermal, DSC, reversible: yes, whole UniProt chain shown

B1: Alpha-2-macroglobulin receptor-associated protein wild type, P30533 (protein)
chain: MAPRRVRSFLRGLPALLLLLLFLGPWPAASHGGKYSREKNQPKPSPKRESGEEFRMEKLNQLWEKAQRLHLPPVRLAELHADLKIQERDELAWKKLKLDGLDEDGEKEARLIRNLNVILAKYGLDGKKDARQVTSNSLSGTQEDGLDDPRLEKLWHKAKTSGKFSGEELDKLWREFLHHKEKVHEYNVLLETLSRTEEIHENVISPSDLSDIKGSVLHSRHTELKEKLRSINQGLDRLRRVSHQGYSTEAEFEEPRVIDLWDLAQSANLTDKELEAFREELKHFEAKIEKHNHYQKQLEIAHEKLRHAESVGDGERVSRSREKHALLEGRTKELGYTVKKHLQDLSGRISRARHNEL
Tm (Gly 20 mM, transition: 2): 65.8 °C | unfolding enthalpy (calorimetric) (Gly 20 mM, transition: 2): 56 kcal/mol | unfolding enthalpy (calorimetric) (Glycine 20 mM, transition: 2): 45 kcal/mol and 41 kcal/mol and 59 kcal/mol | unfolding enthalpy (calorimetric) (Glycine 20 mM, transition: 4): 42 kcal/mol and 41 kcal/mol
